Data published in the Human Domainome abundance scans (Beltran et al. 2025).
± gives the uncertainty stated by the source.

B1: V(D)J recombination-activating protein 2, residues 415 to 491; numbered along this chain, P55895 (parent)
chain: YWITCCPTCDVDINTWVPFYSTELNKPAMIYCSHGDGHWVHAQCMDLAERTLIHLSAGSNKYYCNEHVEIARALHTP

Variants of: B1
Assay: abundance fitness (aPCA) (normalised: wild type 0, dead -1); higher = more abundant; growth selection in yeast, the domain comes from the species named
Conditions: Homo sapiens

Row | Variant | abundance fitness
1 | YWITCCPTCDVDINTWVPFYSTELNKPAMIYCSHGDGHWVHAQCMDLAERTLIHLSAGSNKYYCNEHLEIARALHTP [V68L] | -0.08 ± 0.091
2 | YWITCCPTCDVDINTWVPFYSTELNKPAMIYCSHGDGHWVHAQCMDLAERTLIHLSAGSNKYYCNEHKEIARALHTP [V68K] | -0.115 ± 0.14
3 | YGITCCPTCDVDINTWVPFYSTELNKPAMIYCSHGDGHWVHAQCMDLAERTLIHLSAGSNKYYCNEHVEIARALHTP [W2G] | -0.342 ± 0.051
4 | YEITCCPTCDVDINTWVPFYSTELNKPAMIYCSHGDGHWVHAQCMDLAERTLIHLSAGSNKYYCNEHVEIARALHTP [W2E] | -0.231 ± 0.076
5 | YWITCCPTCDVDINTWVPFYSTELNKPAMIYCSHGDGHWVHAQCMDLAERTLIHLSAGSNKGYCNEHVEIARALHTP [Y62G] | -0.495 ± 0.071
6 | YWITCCPTCDVDINTWVPFYSTELNKPAMIYCSHGDGHWVHAQCMDLAERTLIHLSAGSNKYYCNETVEIARALHTP [H67T] | -0.22 ± 0.076
7 | YWITCCPTCDVDINTWWPFYSTELNKPAMIYCSHGDGHWVHAQCMDLAERTLIHLSAGSNKYYCNEHVEIARALHTP [V17W] | -0.117 ± 0.15
8 | YWKTCCPTCDVDINTWVPFYSTELNKPAMIYCSHGDGHWVHAQCMDLAERTLIHLSAGSNKYYCNEHVEIARALHTP [I3K] | -0.018 ± 0.057
9 | YWITCCPTCDVDINTWVPFYSTELNKPAMIYCSHGDGHWVHAQCMDLAERTLIHLSAGSNKYRCNEHVEIARALHTP [Y63R] | -0.049 ± 0.067
10 | YWITCCPTCDVDINTWVPFYSTELNKPAMIYCSHGDGHWVHAQCMDLAERTLIHLSAGSNKYYCNEHVEIARRLHTP [A73R] | 0.001 ± 0.057
11 | YWITCCPTCDVDINTWVPFYSTELNKPAMIYCSHGDGHWVHAQCMDLAERTLIHLSAGSNKYYKNEHVEIARALHTP [C64K] | -0.842 ± 0.3
12 | YWITCCPYCDVDINTWVPFYSTELNKPAMIYCSHGDGHWVHAQCMDLAERTLIHLSAGSNKYYCNEHVEIARALHTP [T8Y] | -0.541 ± 0.45
13 | YWITCCPQCDVDINTWVPFYSTELNKPAMIYCSHGDGHWVHAQCMDLAERTLIHLSAGSNKYYCNEHVEIARALHTP [T8Q] | -0.258 ± 0.2
14 | YWITCCPTCDVDINTWVPFYSTELNKPAMIYCSHGDGHWVHAQCMDLAEATLIHLSAGSNKYYCNEHVEIARALHTP [R50A] | 0.094 ± 0.066
15 | YWITCCPTCDVDINTWVPFYSTELNKPAMIYCSHGDGHWVHAQCMDLAEWTLIHLSAGSNKYYCNEHVEIARALHTP [R50W] | -0.195 ± 0.066
16 | YWITCCPTCDVDINTWVPNYSTELNKPAMIYCSHGDGHWVHAQCMDLAERTLIHLSAGSNKYYCNEHVEIARALHTP [F19N] | 0.191 ± 0.46
17 | YWITCCPTCDVDINTWVPCYSTELNKPAMIYCSHGDGHWVHAQCMDLAERTLIHLSAGSNKYYCNEHVEIARALHTP [F19C] | -0.186 ± 0.2
18 | YWITCCPTCDVDINTWVPFYSTELNKPAMIYCSHGDGHWVHAQCMDLAERTLIHLSWGSNKYYCNEHVEIARALHTP [A57W] | -0.276 ± 0.11

Row | Variant | abundance fitness
19 | YWITCCPTCDVDINTWVPFYETELNKPAMIYCSHGDGHWVHAQCMDLAERTLIHLSAGSNKYYCNEHVEIARALHTP [S21E] | 0.119 ± 0.17
20 | YWITCCPTCDTDINTWVPFYSTELNKPAMIYCSHGDGHWVHAQCMDLAERTLIHLSAGSNKYYCNEHVEIARALHTP [V11T] | -0.336 ± 0.13
21 | YWISCCPTCDVDINTWVPFYSTELNKPAMIYCSHGDGHWVHAQCMDLAERTLIHLSAGSNKYYCNEHVEIARALHTP [T4S] | -0.037 ± 0.054
22 | YWIACCPTCDVDINTWVPFYSTELNKPAMIYCSHGDGHWVHAQCMDLAERTLIHLSAGSNKYYCNEHVEIARALHTP [T4A] | -0.122 ± 0.046
23 | YWITCCPTCDVDINTWVPFYSTELNQPAMIYCSHGDGHWVHAQCMDLAERTLIHLSAGSNKYYCNEHVEIARALHTP [K26Q] | -0.179 ± 0.19
24 | YWITCCPTCDVDINTEVPFYSTELNKPAMIYCSHGDGHWVHAQCMDLAERTLIHLSAGSNKYYCNEHVEIARALHTP [W16E] | -0.894 ± 0.36
25 | YWITCCPTCDVDINTWVPFYSTELNKPAMIYCSHGDGHLVHAQCMDLAERTLIHLSAGSNKYYCNEHVEIARALHTP [W39L] | -0.097 ± 0.033
26 | YWITCCPTCDVDINTWVPFYSTELNKPAMIYCSHGDGHPVHAQCMDLAERTLIHLSAGSNKYYCNEHVEIARALHTP [W39P] | -0.294 ± 0.064
27 | YWITCCPTCDVDINTWVPFYSTELNKPAMIYCSHGDGHHVHAQCMDLAERTLIHLSAGSNKYYCNEHVEIARALHTP [W39H] | -0.144 ± 0.11
28 | YWITCCPTCDVDINTWVPFYSTELNKPGMIYCSHGDGHWVHAQCMDLAERTLIHLSAGSNKYYCNEHVEIARALHTP [A28G] | -0.775 ± 0.27
29 | YWITCCPTCDVDINTWVPFYSTELNKPWMIYCSHGDGHWVHAQCMDLAERTLIHLSAGSNKYYCNEHVEIARALHTP [A28W] | -0.116 ± 0.19
30 | YWITCCPTCDVDINTWVPFYSTELNKPSMIYCSHGDGHWVHAQCMDLAERTLIHLSAGSNKYYCNEHVEIARALHTP [A28S] | -0.035 ± 0.15
31 | YWITCCPTCDVDENTWVPFYSTELNKPAMIYCSHGDGHWVHAQCMDLAERTLIHLSAGSNKYYCNEHVEIARALHTP [I13E] | 0.172 ± 0.29
32 | YWITCCPTCDVDINTWVPFYSTELNKPAMIYCSHGDEHWVHAQCMDLAERTLIHLSAGSNKYYCNEHVEIARALHTP [G37E] | -0.778 ± 0.26
33 | QWITCCPTCDVDINTWVPFYSTELNKPAMIYCSHGDGHWVHAQCMDLAERTLIHLSAGSNKYYCNEHVEIARALHTP [Y1Q] | -0.283 ± 0.22
34 | YWITCCPTCDVDINTWVPFYSTELNKPAMIYCSHGDGHWVHAQCMDLAERTLIHLSAGSNKYYCQEHVEIARALHTP [N65Q] | -0.181 ± 0.14
35 | YWITCCPTCDVDINTWVPFYSTELNKPAMIYCSHNDGHWVHAQCMDLAERTLIHLSAGSNKYYCNEHVEIARALHTP [G35N] | 0.137 ± 0.36
36 | YWITCCPTCDVDINTWVPFYSTELNKPAMITCSHGDGHWVHAQCMDLAERTLIHLSAGSNKYYCNEHVEIARALHTP [Y31T] | -0.197 ± 0.079
